Where two headings read alike, the source gives them in different places.

One may read the stoichiometry N as the number of molecules, sites or subunits per partner or assembly.

Holding throughout (test): native MS
For data set [1], the target named is 15N-labelled Kis antitoxin (Killing suppressor) of the parD operon of plasmid R1 (Escherichia coli (plasmid R1)).
The target is the same in data set [2]. This is another data set of the same source.
The data set “native MS” deals with the molecule itself.

Sequence of 15N-labelled Kis antitoxin (Killing suppressor) of the parD operon of plasmid R1 (Escherichia coli (plasmid R1)) (P13975 whole entry): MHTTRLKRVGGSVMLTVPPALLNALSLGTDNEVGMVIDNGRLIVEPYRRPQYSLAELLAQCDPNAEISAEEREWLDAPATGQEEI

For the molecule “15N-labelled Kis antitoxin (Killing suppressor) of the parD operon of plasmid R1 (natural protein)”, the stoichiometry N (subunits in the oligomer) in data set [1] was 2.
In data set [2], “Kid toxin (Killing determinant) of the parD operon of plasmid R1 (from UniProt P13976 24-133) (natural protein)” returned a stoichiometry N (Kid per Kis (2:1)) of 2, a stoichiometry N (Kid per Kis (2:2)) of 1, a stoichiometry N (Kid per Kis (4:2)) of 2 and a stoichiometry N (Kid per Kis (4:4)) of 1. Besides, the stoichiometry N (Kid per Kis (4:6), on the 30-bp parD DNA) in data set [2] was found to be 0.67. Further, in data set [1], the stoichiometry N (Kid per Kis (2:1)) came out at 2 and the stoichiometry N (Kid per Kis (4:2)) is 2.

B1: Kid toxin (Killing determinant) of the parD operon of plasmid R1 (natural protein)
chain: MERGEIWLVSLDPTAGHEQQGTRPVLIVTPAAFNRVTRLPVVVPVTSGGNFARTAGFAVSLDGVGIRTTGVVRCDQPRTIDMKARGGKRLERVPETIMNEVLGRLSTILT
On to B1, for which the “stoichiometry N” value in the data set “native MS” turned out to be 2 subunits in the oligomer.

For the origin of these results see publication PMC1865072 (Nucleic Acids Research, 2007).
